Drawing on patent US20040224389A1, this text covers mean Fas fluorescence, fold over nonspecific fluorescence (isotype control) for one substance.

The target in the assay is human Fas (CD95/APO-1) (human) (UniProt P25445). Description: flow cytometric immunofluorescence on 293 cells, 2 ug/ml antibody compared with FITC-conjugated isotype control DAK-G01.
Chain of UniProt P25445 (P25445 26-335 limits assumed): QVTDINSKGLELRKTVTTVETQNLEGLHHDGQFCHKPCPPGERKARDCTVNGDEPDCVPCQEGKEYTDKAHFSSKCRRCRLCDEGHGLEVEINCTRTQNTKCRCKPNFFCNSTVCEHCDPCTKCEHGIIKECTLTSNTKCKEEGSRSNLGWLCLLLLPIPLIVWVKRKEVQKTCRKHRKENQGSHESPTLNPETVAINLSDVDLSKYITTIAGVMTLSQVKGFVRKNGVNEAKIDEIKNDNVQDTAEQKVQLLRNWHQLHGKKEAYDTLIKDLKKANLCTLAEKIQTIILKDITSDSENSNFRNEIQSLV

“FITC-conjugated mouse IgG1 anti-human Fas receptor (clone DX2, Pharmingen) (antibody)”: the mean Fas fluorescence, fold over nonspecific fluorescence (isotype control) amounted to 4.9 fold.
